Source: paper PMC5712522 (Nature Communications, 2017)

Biological target: the molecule itself
Assay: SEC-MALS; Shodex KW404-4F column; 50 μg of protein; PBS pH 7.2

B1: LIMP-2 luminal domain H150A (domain or fragment, UniProt Q14108 28-431, looked up)
chain: VFQKAVDQSIEKKIVLRNGTEAFDSWEKPPLPVYTQFYFFNVTNPEEILRGETPRVEEVGPYTYRELRNKANIQFGDNGTTISAVSNKAYVFERDQSVGDPKIDLIRTLNIPVLTVIEWSQVAFLREIIEAMLKAYQQKLFVTHTVDELLWGYKDEILSLIHVFRPDISPYFGLFYEKNGTNDGDYVFLTGEDSYLNFTKIVEWNGKTSLDWWITDKCNMINGTDGDSFHPLITKDEVLYVFPSDFCRSVYITFSDYESVQGLPAFRYKVPAEILANTSDNAGFCIPEGNCLGSGVLNVSICKNGAPIIMSFPHFYQADERFVSAIEGMHPNQEDHETFVDINPLTGIILKAAKRFQINIYVKKLDDFVETGDIRTMVFPVMYLNESVHIDKETASRLKSMINT
notes: LIMP-2 (SCARB2), soluble luminal domain, residues 28–431, with H150A; also called dimerization-deficient mutant; source: Expi293F (HEK), purified in the same manner as the wild-type protein
binding result: binds

B2: LIMP-2 luminal domain H150A/F151D (domain or fragment, UniProt Q14108 28-431, looked up)
chain: VFQKAVDQSIEKKIVLRNGTEAFDSWEKPPLPVYTQFYFFNVTNPEEILRGETPRVEEVGPYTYRELRNKANIQFGDNGTTISAVSNKAYVFERDQSVGDPKIDLIRTLNIPVLTVIEWSQVADLREIIEAMLKAYQQKLFVTHTVDELLWGYKDEILSLIHVFRPDISPYFGLFYEKNGTNDGDYVFLTGEDSYLNFTKIVEWNGKTSLDWWITDKCNMINGTDGDSFHPLITKDEVLYVFPSDFCRSVYITFSDYESVQGLPAFRYKVPAEILANTSDNAGFCIPEGNCLGSGVLNVSICKNGAPIIMSFPHFYQADERFVSAIEGMHPNQEDHETFVDINPLTGIILKAAKRFQINIYVKKLDDFVETGDIRTMVFPVMYLNESVHIDKETASRLKSMINT
notes: LIMP-2 (SCARB2), soluble luminal domain, residues 28–431, with H150A and F151D; also called dimerization-deficient mutant; source: Expi293F (HEK), purified in the same manner as the wild-type protein
binding result: binds
